One molecule from publication PMC12443476 (eLife, 2025) can be followed below.

The experiment addresses T1, biotinylated Tom70 (109-600) with N-terminal AVI tag (human, UniProt O94826 109-600, biotin (AVI tag, by co-expressed BirA)).
T1 construct: also called biotin-Tom70; immobilized Tom70
T1 sequence: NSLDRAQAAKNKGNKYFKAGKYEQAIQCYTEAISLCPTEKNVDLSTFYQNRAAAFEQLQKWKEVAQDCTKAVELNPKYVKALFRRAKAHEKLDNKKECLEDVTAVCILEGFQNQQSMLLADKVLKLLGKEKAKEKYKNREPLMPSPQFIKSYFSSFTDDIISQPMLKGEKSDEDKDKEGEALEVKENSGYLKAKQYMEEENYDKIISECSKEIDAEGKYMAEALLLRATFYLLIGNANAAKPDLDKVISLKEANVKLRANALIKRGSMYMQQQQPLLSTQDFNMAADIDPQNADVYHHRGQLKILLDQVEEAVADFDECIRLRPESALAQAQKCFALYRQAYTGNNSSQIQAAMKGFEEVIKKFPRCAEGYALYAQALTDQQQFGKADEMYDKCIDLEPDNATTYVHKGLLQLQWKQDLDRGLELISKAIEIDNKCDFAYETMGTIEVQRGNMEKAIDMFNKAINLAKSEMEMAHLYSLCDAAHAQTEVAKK
The experiment can be described thus: SPR. Conditions: both partners purified.

B1: Orf9b T60A peptide (peptide)
peptide: IILRLGSPLSLNMARKALNSLEDKAFQ
Regarding B1, the binding result was “binds”.
